For series [1], the target named is heat-shock protein 90β (HSP90β), endogenous, in conditioned medium of SCp2 cells (UniProt P11499).
Series [2] deals with recombinant HSP90β (385903, Calbiochem/EMD Millipore).

These results are taken from patent US20150079071.

Flag-tagged full-length human MMP3 (FL), sequence (chain, as listed by the source): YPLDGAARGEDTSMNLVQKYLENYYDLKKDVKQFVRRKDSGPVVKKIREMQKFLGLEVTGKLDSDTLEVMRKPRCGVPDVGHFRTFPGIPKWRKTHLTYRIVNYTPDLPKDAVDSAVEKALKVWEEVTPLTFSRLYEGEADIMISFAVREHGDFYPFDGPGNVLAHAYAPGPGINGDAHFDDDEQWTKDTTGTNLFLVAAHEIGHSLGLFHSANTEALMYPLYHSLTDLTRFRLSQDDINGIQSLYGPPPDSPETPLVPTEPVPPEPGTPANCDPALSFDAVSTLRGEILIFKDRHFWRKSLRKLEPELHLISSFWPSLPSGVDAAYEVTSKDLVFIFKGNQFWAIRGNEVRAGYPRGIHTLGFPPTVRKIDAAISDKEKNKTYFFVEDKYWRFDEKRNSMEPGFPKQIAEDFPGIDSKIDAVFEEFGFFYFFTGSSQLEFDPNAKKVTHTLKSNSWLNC
heat-shock protein 90β (HSP90β), endogenous, in conditioned medium of SCp2 cells, sequence (P11499 2-724): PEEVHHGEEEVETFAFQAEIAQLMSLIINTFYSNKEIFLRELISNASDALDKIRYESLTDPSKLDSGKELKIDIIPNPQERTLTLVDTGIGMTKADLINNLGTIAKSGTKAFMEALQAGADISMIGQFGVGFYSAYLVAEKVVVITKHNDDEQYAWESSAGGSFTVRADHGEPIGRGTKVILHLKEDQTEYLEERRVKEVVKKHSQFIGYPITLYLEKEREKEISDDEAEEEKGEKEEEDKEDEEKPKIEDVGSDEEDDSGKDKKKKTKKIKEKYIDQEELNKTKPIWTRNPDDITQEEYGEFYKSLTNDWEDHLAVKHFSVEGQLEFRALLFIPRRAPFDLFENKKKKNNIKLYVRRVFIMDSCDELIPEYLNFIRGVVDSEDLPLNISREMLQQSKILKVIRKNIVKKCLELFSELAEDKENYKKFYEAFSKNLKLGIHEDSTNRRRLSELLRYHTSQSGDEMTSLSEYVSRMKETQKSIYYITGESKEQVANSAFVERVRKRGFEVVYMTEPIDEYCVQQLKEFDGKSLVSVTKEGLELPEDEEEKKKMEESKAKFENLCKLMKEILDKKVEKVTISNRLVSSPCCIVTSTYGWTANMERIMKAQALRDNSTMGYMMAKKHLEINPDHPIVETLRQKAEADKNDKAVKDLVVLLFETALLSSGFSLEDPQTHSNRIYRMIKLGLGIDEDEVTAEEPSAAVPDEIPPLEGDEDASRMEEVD

Turning to Flag-tagged full-length human MMP3 (FL), in series [1], the “invasion and branching (spatial network) of mammary organoids in 3D Col-1 gels with a function-blocking antibody against HSP90β” value is “blocking the extracellular HSP90β with inhibitory antibodies added to the medium abolished branching ability in all organoids, including controls”. Also, the “invasion and branching (spatial network) of mammary organoids in 3D Col-1 gels with recombinant HSP90β” value in series [2] is reported as “The recombinant HSP90β added extracellularly enabled the secreted MMP3 to induce the most exuberant branched structures”.
